Test results published in PMC4797280 (Nucleic Acids Research, 2016).
Where two headings read alike, the source gives them in different places.

T1: Mre11^D16A (LexA-Mre11^D16A) (S. cerevisiae, UniProt P32829 1-692, D16A)
T1 sequence (looked up): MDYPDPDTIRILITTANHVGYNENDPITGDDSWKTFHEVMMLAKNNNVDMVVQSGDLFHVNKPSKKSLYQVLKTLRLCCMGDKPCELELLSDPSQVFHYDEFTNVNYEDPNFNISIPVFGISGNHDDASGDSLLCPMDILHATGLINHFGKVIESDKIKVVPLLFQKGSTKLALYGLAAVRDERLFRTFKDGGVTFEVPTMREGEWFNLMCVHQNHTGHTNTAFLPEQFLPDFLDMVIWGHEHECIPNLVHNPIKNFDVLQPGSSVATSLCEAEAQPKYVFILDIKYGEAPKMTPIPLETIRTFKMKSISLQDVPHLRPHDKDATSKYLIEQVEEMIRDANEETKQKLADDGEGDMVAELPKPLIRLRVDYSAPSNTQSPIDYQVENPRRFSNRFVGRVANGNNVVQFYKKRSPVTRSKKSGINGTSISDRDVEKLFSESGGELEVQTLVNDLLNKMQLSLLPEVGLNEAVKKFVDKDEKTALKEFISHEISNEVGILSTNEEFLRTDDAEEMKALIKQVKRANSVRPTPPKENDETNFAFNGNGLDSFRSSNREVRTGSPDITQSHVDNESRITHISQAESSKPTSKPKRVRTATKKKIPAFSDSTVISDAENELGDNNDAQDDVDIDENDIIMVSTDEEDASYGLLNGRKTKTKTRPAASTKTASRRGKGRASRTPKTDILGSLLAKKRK

T2: Mre11^P84S (LexA-Mre11^P84S) (S. cerevisiae, UniProt P32829 1-692, P84S)
T2 sequence (looked up): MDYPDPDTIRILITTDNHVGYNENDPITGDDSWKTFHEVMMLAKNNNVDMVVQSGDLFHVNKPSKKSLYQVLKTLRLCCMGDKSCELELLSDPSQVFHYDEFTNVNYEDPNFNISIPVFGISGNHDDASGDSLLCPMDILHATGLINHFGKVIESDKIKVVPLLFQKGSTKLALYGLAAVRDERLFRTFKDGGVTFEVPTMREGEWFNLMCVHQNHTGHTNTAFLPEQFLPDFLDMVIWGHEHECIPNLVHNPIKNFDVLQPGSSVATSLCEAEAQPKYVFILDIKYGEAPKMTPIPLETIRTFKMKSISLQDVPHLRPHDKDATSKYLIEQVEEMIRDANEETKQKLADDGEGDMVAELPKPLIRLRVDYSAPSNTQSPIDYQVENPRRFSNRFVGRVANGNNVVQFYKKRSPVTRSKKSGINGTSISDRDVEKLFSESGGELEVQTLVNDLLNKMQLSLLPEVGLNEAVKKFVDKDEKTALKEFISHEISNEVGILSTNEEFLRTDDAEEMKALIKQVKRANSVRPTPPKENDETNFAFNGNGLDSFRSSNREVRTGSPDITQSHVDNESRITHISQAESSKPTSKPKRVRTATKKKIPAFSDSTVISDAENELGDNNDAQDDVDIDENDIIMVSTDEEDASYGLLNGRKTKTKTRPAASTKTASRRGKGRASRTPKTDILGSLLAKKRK

T3: Mre11^I158R (LexA-Mre11^I158R) (S. cerevisiae, UniProt P32829 1-692, I158R)
T3 sequence (looked up): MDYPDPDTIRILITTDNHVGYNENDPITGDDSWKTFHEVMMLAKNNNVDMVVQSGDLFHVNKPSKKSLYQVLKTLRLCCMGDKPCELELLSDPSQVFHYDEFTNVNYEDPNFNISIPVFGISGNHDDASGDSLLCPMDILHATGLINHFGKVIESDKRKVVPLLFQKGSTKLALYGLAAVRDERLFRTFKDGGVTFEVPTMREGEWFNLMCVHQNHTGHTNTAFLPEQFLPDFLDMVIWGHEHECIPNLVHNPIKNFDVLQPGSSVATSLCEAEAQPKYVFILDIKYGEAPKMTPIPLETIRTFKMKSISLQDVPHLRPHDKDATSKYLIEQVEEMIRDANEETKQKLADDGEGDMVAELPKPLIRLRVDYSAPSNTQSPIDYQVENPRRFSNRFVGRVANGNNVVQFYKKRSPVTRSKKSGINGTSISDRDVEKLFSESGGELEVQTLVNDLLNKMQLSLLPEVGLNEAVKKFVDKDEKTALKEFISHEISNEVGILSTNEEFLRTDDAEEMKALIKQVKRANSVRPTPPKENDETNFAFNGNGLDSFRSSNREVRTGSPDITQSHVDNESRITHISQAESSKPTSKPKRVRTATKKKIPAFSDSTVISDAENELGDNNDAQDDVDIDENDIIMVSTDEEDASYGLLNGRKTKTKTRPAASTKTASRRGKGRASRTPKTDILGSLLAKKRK

T4: Mre11^T188I (LexA-Mre11^T188I) (S. cerevisiae, UniProt P32829 1-692, T188I)
T4 sequence (looked up): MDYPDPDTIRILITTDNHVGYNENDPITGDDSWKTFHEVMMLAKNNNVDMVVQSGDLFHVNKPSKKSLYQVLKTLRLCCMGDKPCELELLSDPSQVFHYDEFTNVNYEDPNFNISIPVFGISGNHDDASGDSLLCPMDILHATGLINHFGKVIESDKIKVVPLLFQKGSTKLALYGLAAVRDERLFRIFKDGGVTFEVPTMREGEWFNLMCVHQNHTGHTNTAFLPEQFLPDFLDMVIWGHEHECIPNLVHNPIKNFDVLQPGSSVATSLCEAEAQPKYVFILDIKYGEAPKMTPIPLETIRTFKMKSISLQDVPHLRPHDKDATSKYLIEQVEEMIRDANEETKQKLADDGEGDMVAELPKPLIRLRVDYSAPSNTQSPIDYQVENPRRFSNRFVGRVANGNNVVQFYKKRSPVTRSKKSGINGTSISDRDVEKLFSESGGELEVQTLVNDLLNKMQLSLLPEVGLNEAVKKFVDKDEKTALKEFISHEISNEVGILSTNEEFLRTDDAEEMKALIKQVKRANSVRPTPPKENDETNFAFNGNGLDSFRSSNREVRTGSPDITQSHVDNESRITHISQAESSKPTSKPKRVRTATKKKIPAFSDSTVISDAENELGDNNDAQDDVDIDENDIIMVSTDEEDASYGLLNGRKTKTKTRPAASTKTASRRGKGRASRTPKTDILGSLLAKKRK

T5: S. cerevisiae Mre11 (LexA-Mre11) (S. cerevisiae, UniProt P32829 1-692)
T5 sequence (looked up): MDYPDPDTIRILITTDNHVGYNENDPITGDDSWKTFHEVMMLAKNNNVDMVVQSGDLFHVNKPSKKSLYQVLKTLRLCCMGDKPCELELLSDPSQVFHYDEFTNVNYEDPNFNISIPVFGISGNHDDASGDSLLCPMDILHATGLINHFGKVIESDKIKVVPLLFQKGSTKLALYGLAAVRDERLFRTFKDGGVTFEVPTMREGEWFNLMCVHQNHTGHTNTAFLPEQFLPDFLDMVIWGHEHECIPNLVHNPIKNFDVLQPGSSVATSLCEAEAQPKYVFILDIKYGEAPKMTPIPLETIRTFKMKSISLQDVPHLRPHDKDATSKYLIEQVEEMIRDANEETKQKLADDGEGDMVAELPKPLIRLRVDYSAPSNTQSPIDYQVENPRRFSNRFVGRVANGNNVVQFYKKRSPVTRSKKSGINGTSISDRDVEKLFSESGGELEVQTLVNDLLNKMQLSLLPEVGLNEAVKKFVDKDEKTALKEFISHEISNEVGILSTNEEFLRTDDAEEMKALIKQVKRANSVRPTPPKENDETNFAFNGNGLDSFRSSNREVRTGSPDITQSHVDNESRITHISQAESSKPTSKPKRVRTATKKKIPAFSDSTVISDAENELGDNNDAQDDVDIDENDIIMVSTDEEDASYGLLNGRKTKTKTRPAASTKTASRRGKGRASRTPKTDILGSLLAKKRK


Assays:
Test in all cases: two-hybrid
[1] = target: S. cerevisiae Mre11 (LexA-Mre11) (S. cerevisiae) (UniProt P32829)
[2] = target: S. cerevisiae Mre11 (LexA-Mre11) (S. cerevisiae) (UniProt P32829); remark: listed apart in the source
[3] = target: T1, Mre11^D16A (LexA-Mre11^D16A)
[4] = target: T2, Mre11^P84S (LexA-Mre11^P84S)
[5] = target: T3, Mre11^I158R (LexA-Mre11^I158R)
[6] = target: T4, Mre11^T188I (LexA-Mre11^T188I)
[7] = target: T5, S. cerevisiae Mre11 (LexA-Mre11)
[8] = target: T3, Mre11^I158R (LexA-Mre11^I158R); remark: listed apart in the source
[9] = target: T5, S. cerevisiae Mre11 (LexA-Mre11); remark: listed apart in the source

| two-hybrid β-galactosidase activity (β-galactosidase units) [1] | two-hybrid β-galactosidase activity (β-galactosidase units) [2] | two-hybrid β-galactosidase activity [3] | two-hybrid β-galactosidase activity [4] | two-hybrid β-galactosidase activity [5] | two-hybrid β-galactosidase activity [6] | two-hybrid β-galactosidase activity [7] | two-hybrid β-galactosidase activity [8] | two-hybrid β-galactosidase activity [9] | Molecule |
| --- | --- | --- | --- | --- | --- | --- | --- | --- | --- |
| 38.8 | 71.9 | – | – | – | – | – | – | – | Smt3 (Gal4AD-Smt3) (from UniProt Q12306 1-101) (natural protein) |
| 5.4 | 21.8 | – | – | – | – | – | – | – | Smt3-allR (Gal4AD-Smt3^allR) (from UniProt Q12306 1-101) (natural protein) |
| – | – | 76.2 ± 7 β-galactosidase units | 162 ± 6.4 β-galactosidase units | 37.9 ± 4 β-galactosidase units | 153 ± 4.7 β-galactosidase units | 188 ± 8.5 β-galactosidase units | 35.1 ± 1 β-galactosidase units | 125 ± 9.5 β-galactosidase units | Xrs2 (Gal4AD-Xrs2) (natural protein, S. cerevisiae, UniProt P33301 1-854, looked up) MWVVRYQNTLEDGSISFISCCLQAFKTYSIGRSSKNPLIIKNDKSISRQHITFKWEINNSSDLKHSSLCLVNKGKLTSLNKKFMKVGETFTINASDVLKSTIIELGTTPIRIEFEWINEVWNIPPHLTQFRTMLSEYGISTEISINDIPANLMISDYPKSEDNSIRELYALVSTIPMKKSRFLMELCNTLLPTSKTNLKFDEMWNDMISNPEYNVFDFDPNILLSKFMRLNNIRVLTTIKSEPRLSSLLRTFNINLFAFDNIDSLYKYVDSLEASTEYLILTTTDKKENGKILCTIKTMLTSIIDGTLSAVINMKGASSRTLDNGKFDQISEGMSTILKTSRAPEVEASPVVSKKRKLNRRRVLPLDSLDFFAGGLSTKTLSENRSLTDAKRLNCGAESKTVISSPNIAEADEKHAPFLQNALKPTEDIGKKSGHSSPGAIIVSSPNLGTVNTSEDSLDKSLQSHKLPQPSLPEVAGIGSQTISSNSADYETAAVNSMDDAEVTKNFRVNHHQNIEQPSKNIRKLSNYSREISSPLQENCKSPVKELSIKEKSGTPHAFVEAIQETKNREVKRVKSTIVELKDEELSEEAINQLKNLAIVEPSNNLLRKSFDSEGNKTSRTTEKWENSLMEPEWHKRKNFKTFVKVRPKSKAHKEEGKNNTQSSDFIRNAAFLITRNYVPLKKYSKKDTTTKWGTEENEDMFALTEMERFGSNTFMSDNINSNTIQKRSQALNRFTNEDSSNEGEEDSFSFSRCSGTAASVQPLKNKIFITDEDDLGDIDDKSDRLNHRENNRNLFVVKEMNLRPNLSEECSKQSRHSRSATSRSRGSFGASNNGDGDDDDDDGPKFTFKRRKG |
| – | – | – | 51.7 ± 3.1 β-galactosidase units | – | 60.1 ± 3.6 β-galactosidase units | – | – | – | Smt3 (Gal4AD-Smt3) (natural protein, S. cerevisiae, UniProt Q12306 1-101, looked up) MSDSEVNQEAKPEVKPEVKPETHINLKVSDGSSEIFFKIKKTTPLRRLMEAFAKRQGKEMDSLRFLYDGIRIQADQTPEDLDMEDNDIIEAHREQIGGATY |
